Measured values reported in article PMC7864068, “α2-Macroglobulin-like protein 1 can conjugate and inhibit proteases through their hydroxyl groups, because of an enhanced reactivity of its thiol ester” (The Journal of Biological Chemistry, 2021).
Positions count from the first letter of the chain named. In names and notes the source's numbering stands.

T1: A2ML1 (α2-macroglobulin-like protein 1) (Homo sapiens, UniProt A8K2U0)
T1 construct: full-length recombinant, secreted by HEK293 Freestyle cells, no tag mentioned, purified by Zn IMAC, anion exchange and size exclusion; monomer; bait region cleaved by chymotrypsin in the assay
T1 sequence (A8K2U0 18-1454): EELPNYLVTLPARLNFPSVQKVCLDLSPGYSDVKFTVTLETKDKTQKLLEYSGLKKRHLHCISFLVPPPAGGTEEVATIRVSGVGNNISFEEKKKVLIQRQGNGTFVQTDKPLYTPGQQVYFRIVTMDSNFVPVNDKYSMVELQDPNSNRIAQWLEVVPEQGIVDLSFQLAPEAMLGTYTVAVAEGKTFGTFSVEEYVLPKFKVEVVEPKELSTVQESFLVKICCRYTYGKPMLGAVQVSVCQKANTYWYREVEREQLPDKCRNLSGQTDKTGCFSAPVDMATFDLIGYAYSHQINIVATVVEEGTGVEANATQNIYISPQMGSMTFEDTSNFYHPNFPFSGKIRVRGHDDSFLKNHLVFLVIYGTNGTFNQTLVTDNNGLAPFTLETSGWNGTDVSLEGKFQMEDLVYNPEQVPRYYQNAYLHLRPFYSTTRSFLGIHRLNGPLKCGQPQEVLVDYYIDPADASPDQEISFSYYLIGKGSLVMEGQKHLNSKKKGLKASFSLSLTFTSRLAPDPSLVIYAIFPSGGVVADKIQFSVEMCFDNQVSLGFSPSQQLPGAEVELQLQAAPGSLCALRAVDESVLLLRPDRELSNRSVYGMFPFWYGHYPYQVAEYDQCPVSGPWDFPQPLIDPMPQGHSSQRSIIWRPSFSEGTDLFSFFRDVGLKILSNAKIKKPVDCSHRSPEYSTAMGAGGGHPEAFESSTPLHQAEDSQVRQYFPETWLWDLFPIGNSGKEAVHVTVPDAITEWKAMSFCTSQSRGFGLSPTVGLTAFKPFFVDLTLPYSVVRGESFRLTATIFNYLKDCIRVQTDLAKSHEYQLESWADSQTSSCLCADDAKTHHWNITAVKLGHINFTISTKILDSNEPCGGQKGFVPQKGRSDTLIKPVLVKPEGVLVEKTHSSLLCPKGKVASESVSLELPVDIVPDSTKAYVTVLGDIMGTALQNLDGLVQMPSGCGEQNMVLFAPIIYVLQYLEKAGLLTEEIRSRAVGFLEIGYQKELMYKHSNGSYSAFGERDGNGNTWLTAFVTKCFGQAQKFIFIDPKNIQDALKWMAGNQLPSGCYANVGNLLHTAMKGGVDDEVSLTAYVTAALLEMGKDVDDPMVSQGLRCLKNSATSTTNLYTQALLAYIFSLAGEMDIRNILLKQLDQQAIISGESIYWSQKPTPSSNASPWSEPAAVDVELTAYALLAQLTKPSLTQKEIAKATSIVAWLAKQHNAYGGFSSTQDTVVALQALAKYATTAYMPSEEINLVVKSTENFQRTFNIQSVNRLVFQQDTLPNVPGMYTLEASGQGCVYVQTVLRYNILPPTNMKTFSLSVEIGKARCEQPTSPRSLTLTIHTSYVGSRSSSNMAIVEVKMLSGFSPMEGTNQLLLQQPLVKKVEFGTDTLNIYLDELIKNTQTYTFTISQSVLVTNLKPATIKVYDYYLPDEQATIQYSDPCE

T2: A2M (α2-macroglobulin) (Homo sapiens, UniProt P01023)
T2 construct: WT purified from plasma; N1088H recombinant from HEK293 cells (gene based on mRNA M11311), native form enriched by LRP1 depletion; tetramer; cleaved by chymotrypsin in the assay
T2 sequence (P01023 24-1474): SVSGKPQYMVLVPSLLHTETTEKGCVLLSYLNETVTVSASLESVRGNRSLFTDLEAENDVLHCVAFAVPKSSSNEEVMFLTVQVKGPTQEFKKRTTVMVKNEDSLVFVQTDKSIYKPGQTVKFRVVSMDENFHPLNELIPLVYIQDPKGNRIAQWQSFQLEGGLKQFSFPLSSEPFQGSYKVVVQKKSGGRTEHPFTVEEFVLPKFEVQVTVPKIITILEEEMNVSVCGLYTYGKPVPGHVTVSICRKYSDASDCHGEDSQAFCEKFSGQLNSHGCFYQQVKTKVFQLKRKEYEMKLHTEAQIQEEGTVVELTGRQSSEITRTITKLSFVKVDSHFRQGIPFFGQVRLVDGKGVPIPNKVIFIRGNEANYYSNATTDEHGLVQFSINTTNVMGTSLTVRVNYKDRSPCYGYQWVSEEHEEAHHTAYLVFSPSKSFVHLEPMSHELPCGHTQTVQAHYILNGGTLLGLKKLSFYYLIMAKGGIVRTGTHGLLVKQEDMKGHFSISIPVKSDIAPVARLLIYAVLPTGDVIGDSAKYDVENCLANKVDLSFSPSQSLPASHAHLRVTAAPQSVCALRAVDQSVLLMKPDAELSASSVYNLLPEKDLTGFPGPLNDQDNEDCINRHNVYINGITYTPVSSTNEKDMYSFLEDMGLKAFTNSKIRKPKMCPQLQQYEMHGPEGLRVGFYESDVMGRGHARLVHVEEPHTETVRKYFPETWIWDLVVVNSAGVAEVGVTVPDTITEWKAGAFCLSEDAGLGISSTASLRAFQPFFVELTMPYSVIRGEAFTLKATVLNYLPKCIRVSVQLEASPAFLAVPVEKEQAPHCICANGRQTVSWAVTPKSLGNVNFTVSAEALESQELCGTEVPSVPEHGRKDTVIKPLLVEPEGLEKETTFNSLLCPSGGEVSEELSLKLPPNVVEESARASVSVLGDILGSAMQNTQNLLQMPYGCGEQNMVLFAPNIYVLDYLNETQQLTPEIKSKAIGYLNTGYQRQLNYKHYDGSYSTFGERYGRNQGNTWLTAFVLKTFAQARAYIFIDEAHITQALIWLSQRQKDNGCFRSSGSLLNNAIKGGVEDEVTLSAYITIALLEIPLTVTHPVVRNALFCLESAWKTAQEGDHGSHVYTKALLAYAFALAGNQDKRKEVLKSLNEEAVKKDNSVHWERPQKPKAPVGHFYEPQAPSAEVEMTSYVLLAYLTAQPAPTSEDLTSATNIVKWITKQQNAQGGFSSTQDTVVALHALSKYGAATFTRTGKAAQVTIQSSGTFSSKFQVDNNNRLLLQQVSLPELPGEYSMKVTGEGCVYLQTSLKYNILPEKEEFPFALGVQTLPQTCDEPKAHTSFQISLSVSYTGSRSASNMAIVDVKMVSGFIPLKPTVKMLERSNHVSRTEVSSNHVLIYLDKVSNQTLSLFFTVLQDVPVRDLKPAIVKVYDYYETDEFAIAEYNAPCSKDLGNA

T3: Thermolysin from Geobacillus stearothermophilus, unmodified (Geobacillus stearothermophilus, UniProt P00800 233-548)
T3 sequence (looked up): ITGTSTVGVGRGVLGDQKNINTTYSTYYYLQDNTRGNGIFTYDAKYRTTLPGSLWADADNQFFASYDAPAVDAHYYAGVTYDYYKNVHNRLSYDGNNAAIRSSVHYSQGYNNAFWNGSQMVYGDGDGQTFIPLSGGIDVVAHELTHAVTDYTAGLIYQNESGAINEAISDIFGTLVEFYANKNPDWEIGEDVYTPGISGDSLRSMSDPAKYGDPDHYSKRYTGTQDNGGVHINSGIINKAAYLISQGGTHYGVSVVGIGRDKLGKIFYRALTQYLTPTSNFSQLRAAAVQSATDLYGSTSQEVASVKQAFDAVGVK

B1: Human α2-macroglobulin-like protein 1 (A2ML1), recombinant wild type (natural protein, UniProt A8K2U0-1 18-1454, looked up)
chain: T1 sequence (A8K2U0 18-1454)
modifications: internal thiol ester in which Gln-973 participates
B2: A2ML1 H1084N mutant (natural protein, human, UniProt A8K2U0-1 18-1454, looked up)
chain: T1 sequence (A8K2U0 18-1454) with H1067N
modifications: internal thiol ester in which Gln-973 participates

Columns and labels:
[1] = target: T1, A2ML1 (α2-macroglobulin-like protein 1); assay: LC-MS/MS PRM of the pepsin-digested thiol ester peptide conjugate; type: biochemical; conditions: covalent amide at thiol ester Gln-973; A2ML1 activated by chymotrypsin; 200 mM glycine, HBS pH 7.4, 37 °C
[2] = target: T2, A2M (α2-macroglobulin); assay: as above; type: biochemical; conditions: covalent amide at thiol ester Gln-975; plasma-purified A2M activated by chymotrypsin; 200 mM glycine, HBS pH 7.4, 37 °C
[3] = target: T3, Thermolysin from Geobacillus …; assay: cell-based or functional assay
[4] = target: Acetylated thermolysin (Geobacillus stearothermophilus) (UniProt P00800)

Row | Molecule | LC-MS/MS PRM of the pepsin-digested thiol ester peptide conjugate [1] | LC-MS/MS PRM of the pepsin-digested thiol ester peptide conjugate [2] | inhibition of thermolysin's cleavage of resorufin-labeled casein, pH 7.8; molar surplus of A2ML1 needed for full inhibition [3] | inhibition of thermolysin's cleavage of resorufin-labeled casein, reaction at pH 5; surplus of A2ML1 needed for full inhibition [3] | inhibition of acetylated thermolysin's cleavage of resorufin-labeled casein, pH 7.8; molar surplus of A2ML1 needed for full inhibition (fold molar surplus of A2ML1) [4]
1 | NCC(=O)O [glycine] | both WT and H1084N A2ML1s reacted with the amine substrate glycine | both A2Ms were able to conjugate glycine | – | – | –
2 | B1 | – | – | ~2 fold molar surplus of A2ML1 | ~4 fold surplus of A2ML1 | 6
3 | B2 | – | – | ~2 fold molar surplus of A2ML1 | ~4 fold surplus of A2ML1 | –
